Substitutions are numbered along the chain they refer to.
Key:
Test in all cases: pull-down
[1] = biological target: T1, His6-GIGYF1 GYF domain F533E (human, UniProt O75420 470-538, F533E)
T1 sequence (looked up): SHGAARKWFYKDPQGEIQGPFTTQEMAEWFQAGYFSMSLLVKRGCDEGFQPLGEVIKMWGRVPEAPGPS

[2] = biological target: T2, His6-GIGYF1 GYF domain (residues 470-538) (human, UniProt O75420 470-538)
T2 sequence (looked up): T1 sequence (looked up) with E64F

[3] = biological target: T3, His6-GIGYF2 GYF domain (residues 529-597) (human, UniProt Q6Y7W6 529-597)
T3 sequence (looked up): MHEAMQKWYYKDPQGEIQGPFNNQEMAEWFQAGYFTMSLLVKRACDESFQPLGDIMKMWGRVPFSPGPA

[4] = biological target: T4, His6-GIGYF2 GYF domain F592E (human, UniProt Q6Y7W6 529-597, F592E)
T4 sequence (looked up): T3 sequence (looked up) with F64E

binding result [1]: binds
binding result [2]: binds
binding result [3]: binds
binding result [4]: binds
Binder: GWVPPPPGFAP (peptide, UniProt P26651 68-78, looked up) [GST-tagged fragment of the first tetra-proline region of TTP (residues 68-78)]

Source: publication PMC10187677 (RNA, 2023)
